According to publication PMC9445029, “A Cryptochrome adopts distinct moon- and sunlight states and functions as sun- versus moonlight interpreter in monthly oscillator entrainment” (Nature Communications, 2022):

What was measured:
[1] = target: Platynereis dumerilii L-Cryptochrome (L-Cry), full length, N-terminally His6-tagged (1-567) (Platynereis dumerilii); assay: SEC-MALS; purified dark-state L-Cry on a Superose 6 10/300 column, 0.4 ml/min, SEC buffer 25 mM Bis-Tris propane pH 8.0, 150 mM NaCl; molar mass about 130 kDa against 65.6 kDa for the monomer
L-Cry (Pdu-L-Cry) = target: T1, L-Cry (Pdu-L-Cry) (Platynereis dumerilii, UniProt Z9ZPX6J9J5); assay: RP-HPLC of chromophore released from purified protein; UV/Vis spectroscopy; type: binding; conditions: co-purified from Sf9 cells; dark state oxidized FAD (maxima 450 and 475 nm), photoreduced to anionic radical; pH 8.0, 1 mM TCEP
T1 sequence (Z9ZPX6J9J5 1-565): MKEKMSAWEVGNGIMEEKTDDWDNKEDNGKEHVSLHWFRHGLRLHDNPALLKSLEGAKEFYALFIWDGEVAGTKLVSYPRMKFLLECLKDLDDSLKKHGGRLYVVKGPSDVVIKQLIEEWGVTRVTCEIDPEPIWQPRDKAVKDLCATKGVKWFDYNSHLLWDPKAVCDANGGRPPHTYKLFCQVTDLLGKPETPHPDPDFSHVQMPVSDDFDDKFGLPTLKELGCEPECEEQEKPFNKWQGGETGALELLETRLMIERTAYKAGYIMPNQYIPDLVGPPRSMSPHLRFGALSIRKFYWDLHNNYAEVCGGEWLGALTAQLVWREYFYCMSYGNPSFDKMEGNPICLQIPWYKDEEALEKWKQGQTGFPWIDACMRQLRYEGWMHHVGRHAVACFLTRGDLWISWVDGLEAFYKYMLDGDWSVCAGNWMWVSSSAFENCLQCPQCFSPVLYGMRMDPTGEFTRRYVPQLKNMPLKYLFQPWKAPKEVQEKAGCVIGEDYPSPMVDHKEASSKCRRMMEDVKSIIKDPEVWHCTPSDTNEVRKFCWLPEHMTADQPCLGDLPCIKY

stoichiometry N [1] | Compound | RP-HPLC of chromophore released from purified protein; UV/Vis spectroscopy (L-Cry (Pdu-L-Cry))
2 | Platynereis dumerilii L-Cryptochrome (L-Cry), full length, N-terminally His6-tagged (1-567) (natural protein) | 
 | Cc1cc2nc3c(=O)[nH]c(=O)nc-3n(C[C@H](O)[C@H](O)[C@H](O)COP(=O)(O)OP(=O)(O)OC[C@H]3O[C@@H](n4cnc5c(N)ncnc54)[C@H](O)[C@@H]3O)c2cc1C [Flavin Adenine Dinucleotide] | purified L-Cry binds Flavin Adenine Dinucleotide (FAD) as its chromophore
